The source of these data is patent US9234001B2, “Cysteine-free efficient Technetium (Tc) or Rhenium (Re) chelating peptide tags and their use” (Commissariat a L'Energie Atomique et aux Energies …, priority 2008, dated 2016).

One series deals with T1, CHO-SST-2 (mb) (Homo sapiens, UniProt P30874).
T1 construct: expressed in transfected cells; host or cells: CHO cell membranes (mb)
The series is described as follows: Binding to somatostatin receptor, CHO-SST-2 membranes.

The nature of series [1]: Cysteine challenge of TcO complexes. The format is physicochemical. Conditions: pH 7.4, 20 h, 310 K. As to the method: A solution containing 16 μg of lyophilized TcO[UBI 29-41] (SEQ ID NO: 1) was added to 32 μl of Cysteine solution in PBS pH 7.4. Three concentrations of Cysteine solution were used: 100 mM, 15 mM and 1 mM corresponding respectively to a molar ratio Cysteine:Tc-UBI-WT of 333, 53 and 3. The samples were incubated for 20 h at 310 K prior to HPLC and ESI-MS analysis. Similar experiment was performed for TcO[TGRRR] (SEQ ID: NO 22) complex. 13 μg of lyophilized TGRRR(SEQ ID: NO 22)-TcO complex were added to 64 μl of 15 mM Cysteine solution in PBS pH 7.4 corresponding to a TcO[TGRRR] (SEQ ID: NO 22):Cysteine molar ratio of 50. This solution was incubated for 20 h at room temperature prior to HPLC analysis.
To be useful for the in vivo application of the TGRRR sequence (SEQ ID NO: 26) to label peptides or proteins, the TcO[TGRRR] (SEQ ID NO: 27) complex must be stable during 1-3 times the period of ^99mTc. The inventors evaluated the stability of the [TcO]^3+ complexes in the case of the peptide UBI-WT (SEQ ID: NO 1) and TGRRR, (peptide P13; SEQ ID NO: 26). To this end, the inventors performed a Cysteine challenge. 16 μg of the TcO[UBI-WT] was added to 1, 15, and 100 mM solutions of Cysteine at pH 7.4 corresponding respectively to molar ratio of 3, 53 and 333. These samples were incubated for 20 h at 310 K. The mixtures were analyzed by HPLC and LC-MS.

In series [2] the test system is AR4-2J xenografted tumour. Put plainly: Whole body section imaging with β-imager. The format is in vivo, mice. The procedure: Full Body section analysis: the mice were injected by caudal vein and sacrificed 4 hours later. For imaging, the mice were anesthesied and then immersed in an −80° C. mixture of dry ice and isopentane to prevent CNT tissue redistribution. After blocking the body in mounting medium, tissue sections (20 μm) were made at −20° C. with a slicing microtome (LEICA Microsystems, France). Sections were kept at room temperature for 2 hours in the presence of silica gel to ensure complete drying.
The quantitative determination of the radioactivity in dried tissue sections and imaging were carried out using a β-imager (Biospace Lab, Paris, France).

Series [3] concerns AR4-2J xenografted tumour. Conditions: mouse, in vivo.
Protocol: Females Balb/c nude mice weighing 20 g were purchased from Charles River Laboratories (L'Arbresle, France). The mice were kept in a conventional animal facility and had access ad libitum to food and drink. The experimental protocol has been approved by the local ethical committee for animal experimentation.
Mice were implanted subcutaneously with 5-6 millions AR4-2J cells freshly suspended in sterile PBS. […] After 1 h, 4 h or 24 h time period, the mice were sacrificed by ex-sanguination under anaesthesia. Organs of interest, blood and urine were collected and weighted. The radioactivity was measured with a gamma counter.
Two control experiments were also conducted.
For series [4] the following is noted: 30 equivalents of Cysteine; cited from earlier work.

Ends that are not written are not given here.

T1 sequence (P30874 whole entry): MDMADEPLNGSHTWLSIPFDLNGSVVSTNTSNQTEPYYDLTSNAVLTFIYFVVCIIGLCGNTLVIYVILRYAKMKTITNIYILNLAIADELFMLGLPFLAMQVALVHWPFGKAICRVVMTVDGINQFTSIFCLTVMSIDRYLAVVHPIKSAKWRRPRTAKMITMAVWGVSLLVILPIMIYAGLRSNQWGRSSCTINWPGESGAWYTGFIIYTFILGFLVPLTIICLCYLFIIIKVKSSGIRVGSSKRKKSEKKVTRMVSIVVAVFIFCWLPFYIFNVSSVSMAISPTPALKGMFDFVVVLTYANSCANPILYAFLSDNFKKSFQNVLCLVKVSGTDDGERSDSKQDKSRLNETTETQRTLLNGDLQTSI
Protocol for CHO-SST-2 (mb): After subtraction of the non-specific binding and normalization, data obtained with [^125I][Tyr^1]-somatostatin were analyzed using the Hill equation to estimate the IC50 values.

By Ki is commonly meant a measure of affinity in units of concentration, obtained from inhibition or displacement. Low values mean a stronger hold on the target, high ones a looser hold on the target. In turn, `CC(C)[C@@H]1NC(=O)[C@H](CCCCN)NC(=O)[C@@H](Cc2c[nH]c3ccccc23)NC(=O)[C@H](Cc2ccc(O)cc2)NC(=O)[C@@H](NC(=O)[C@@H](Cc2ccccc2)NC(=O)CNC(=O)CNC(=O)[C@H](CCCNC(=N)N)NC(=O)[C@H](CCCNC(=N)N)NC(=O)[C@H](CCCNC(=N)N)NC(=O)CNC(=O)[C@@H](N)[C@@H](C)O)CSSC[C@@H](C(=O)N[C@H](C(N)=O)[C@@H](C)O)NC1=O` came in with an inhibition constant (Ki) on CHO-SST-2 (mb) of 0.02 nM.
“TGRAKRRMQYNRR (Ac-TGRAKRRMQYNRR-NH2) [SEQ ID NO: 1, N-acetylated, C-amidated tridecamer, residue 29 to 41 of the protein Ubiquicidine]”: the “initial [TcO]3+ complex observed” value in series [1] (1 mM Cysteine) is recorded as “more than 95%”; in series [1] (15 mM Cysteine), 69%; in series [1] (100 mM Cysteine), 10%.
Regarding “TcO[HTGRRRGG-RC-121]: TcO complex of HTGRRRGG-RC-121”, the “radioactivity uptake in the tumour region, β-imaging of whole body section” value in series [2] (group 1, 4 hours post injection) is given as “important uptake of the labelled compound in this region”; in series [2] (group 2, 125-fold excess of RC-121, 4 hours post injection), “absence of radioactivity uptake”.
“TcO[HTGRRR]: [TcO]3+ complex of the TGRRR peptide (P13) (TGRRR-OH; also: TcO complex)”: the “initial [TcO]3+ complex observed” value in series [1] (15 mM Cysteine) came to 57%. Further, in series [3], the “Tumor/Blood Ratio” value was found to be 1, the “Tumor/Muscle Ratio” value is recorded as 2.6, the “radioactivity in Adrenals” value was 2.2 ± 4.7 % ID/g and the “radioactivity in Bile” value is 6.6 ± 2.4 % ID/g. In series [3], the “radioactivity in Blood” value amounted to 0.3 ± 0.3 % ID/g, the “radioactivity in Brain” value is given as 0.1 ± 0.2 % ID/g, the “radioactivity in Carcass” value was determined as 0.2 ± 0.1 % ID/g and the “radioactivity in Heart” value came out at 0.7 ± 0.6 % ID/g. In series [3], the “radioactivity in Intestines” value was determined as 1.3 ± 0.8 % ID/g, the “radioactivity in Kidneys” value turned out to be 21.9 ± 9.5 % ID/g, the “radioactivity in Liver” value worked out at 2.1 ± 0.5 % ID/g and the “radioactivity in Lungs” value stood at 0.6 ± 0.8 % ID/g. In series [3], the “radioactivity in Muscle” value worked out at 0.8 ± 1.23 % ID/g, the “radioactivity in Pancreas” value is listed as 0.3 ± 0.6 % ID/g, the “radioactivity in Spleen” value was 0.7 ± 0.6 % ID/g and the “radioactivity in Stomach” value came out at 2.6 ± 2.2 % ID/g. Further, in series [3], the “radioactivity in Tail” value came to 5.3 ± 4.5 % ID/g and the “radioactivity in Urine” value was determined as 8.6 ± 5.5 % ID/g.
Consider “[AGGG]TcO complex: TcO complex of the peptide AGGG (SEQ ID NO: 31), from the literature (also: TcO complex)”, for which the “stability against Cysteine” value in series [4] is on record as “completely unstable”.
